# Reference: US20100093623A1, “COMPOSITIONS AND METHODS FOR […]-LIKE RECEPTOR ACTIVITY AND USES THEREOF” (Burnham Institute for Medical Research, priority 2008, published 2010)
# T1: (His)6-NLRP1 (NLR family, pyrin domain-containing 1), purified recombinant full-length protein from Sf21 cells (human), Q9C000
# T1 chain: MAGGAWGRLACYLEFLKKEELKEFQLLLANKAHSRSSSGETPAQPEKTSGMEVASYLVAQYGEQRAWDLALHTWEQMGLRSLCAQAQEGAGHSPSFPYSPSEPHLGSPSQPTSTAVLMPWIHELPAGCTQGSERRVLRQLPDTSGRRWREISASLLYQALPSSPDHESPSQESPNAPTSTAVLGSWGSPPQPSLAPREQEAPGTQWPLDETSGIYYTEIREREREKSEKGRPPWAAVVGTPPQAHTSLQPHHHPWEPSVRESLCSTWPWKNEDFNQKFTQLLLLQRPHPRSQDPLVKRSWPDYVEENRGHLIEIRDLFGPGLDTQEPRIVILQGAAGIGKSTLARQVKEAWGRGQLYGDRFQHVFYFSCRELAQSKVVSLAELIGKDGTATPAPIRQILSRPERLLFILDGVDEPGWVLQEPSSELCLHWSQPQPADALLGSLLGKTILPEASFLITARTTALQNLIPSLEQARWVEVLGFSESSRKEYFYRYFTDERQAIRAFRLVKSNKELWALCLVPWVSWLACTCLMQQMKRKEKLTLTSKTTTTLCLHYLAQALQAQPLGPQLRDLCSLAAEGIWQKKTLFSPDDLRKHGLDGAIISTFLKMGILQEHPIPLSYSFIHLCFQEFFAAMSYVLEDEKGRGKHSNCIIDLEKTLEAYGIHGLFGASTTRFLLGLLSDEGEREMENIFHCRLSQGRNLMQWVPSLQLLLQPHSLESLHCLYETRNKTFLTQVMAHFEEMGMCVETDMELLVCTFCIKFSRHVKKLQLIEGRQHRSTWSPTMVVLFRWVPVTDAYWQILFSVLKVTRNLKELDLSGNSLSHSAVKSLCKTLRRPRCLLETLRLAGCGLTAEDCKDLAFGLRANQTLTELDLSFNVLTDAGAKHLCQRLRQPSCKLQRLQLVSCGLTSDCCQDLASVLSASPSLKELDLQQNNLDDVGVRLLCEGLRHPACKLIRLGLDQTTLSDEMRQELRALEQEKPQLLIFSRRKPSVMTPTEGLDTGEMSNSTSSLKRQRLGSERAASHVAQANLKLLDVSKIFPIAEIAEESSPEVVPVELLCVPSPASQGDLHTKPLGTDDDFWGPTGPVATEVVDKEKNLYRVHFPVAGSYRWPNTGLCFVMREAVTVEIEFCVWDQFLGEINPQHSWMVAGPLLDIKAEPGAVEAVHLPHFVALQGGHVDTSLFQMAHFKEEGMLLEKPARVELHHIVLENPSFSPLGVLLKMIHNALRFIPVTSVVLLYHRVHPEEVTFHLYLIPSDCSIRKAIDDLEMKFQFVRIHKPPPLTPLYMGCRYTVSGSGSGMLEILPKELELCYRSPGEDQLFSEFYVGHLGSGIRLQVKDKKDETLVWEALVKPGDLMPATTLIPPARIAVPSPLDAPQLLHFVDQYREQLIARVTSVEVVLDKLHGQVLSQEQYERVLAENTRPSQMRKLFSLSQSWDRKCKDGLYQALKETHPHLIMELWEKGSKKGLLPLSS
# Molecular target: T1, (His)6-NLRP1 (NLR family, pyrin …)
# Experiment: cell-based or functional assay
binder,measurement,value
PLQTPAAPGAAAGPALSPVP (modifications not checked) [Bcl-2 Loop peptide 71-90 (synthetic 20'mer)],IC50 (concentration to inhibit NLRP1-induced Caspase-1 activity by 50%),9.92 nM
